Test results from patent publication US20100260765A1 (AstraZeneca / MedImmune, published 2010).

Tests used:
Assay in all cases: cell-based or functional assay
KDR [1] = biological target: T1, KDR (human, UniProt P35968 20-1356)
KDR [2] = biological target: T1, KDR; remark: listed apart in the source
KDR [3] = biological target: T1, KDR; remark: listed apart in the source
KDR [4] = biological target: T1, KDR; remark: listed apart in the source
KDR [5] = biological target: T1, KDR; remark: listed apart in the source

T1 sequence (P35968 20-1356): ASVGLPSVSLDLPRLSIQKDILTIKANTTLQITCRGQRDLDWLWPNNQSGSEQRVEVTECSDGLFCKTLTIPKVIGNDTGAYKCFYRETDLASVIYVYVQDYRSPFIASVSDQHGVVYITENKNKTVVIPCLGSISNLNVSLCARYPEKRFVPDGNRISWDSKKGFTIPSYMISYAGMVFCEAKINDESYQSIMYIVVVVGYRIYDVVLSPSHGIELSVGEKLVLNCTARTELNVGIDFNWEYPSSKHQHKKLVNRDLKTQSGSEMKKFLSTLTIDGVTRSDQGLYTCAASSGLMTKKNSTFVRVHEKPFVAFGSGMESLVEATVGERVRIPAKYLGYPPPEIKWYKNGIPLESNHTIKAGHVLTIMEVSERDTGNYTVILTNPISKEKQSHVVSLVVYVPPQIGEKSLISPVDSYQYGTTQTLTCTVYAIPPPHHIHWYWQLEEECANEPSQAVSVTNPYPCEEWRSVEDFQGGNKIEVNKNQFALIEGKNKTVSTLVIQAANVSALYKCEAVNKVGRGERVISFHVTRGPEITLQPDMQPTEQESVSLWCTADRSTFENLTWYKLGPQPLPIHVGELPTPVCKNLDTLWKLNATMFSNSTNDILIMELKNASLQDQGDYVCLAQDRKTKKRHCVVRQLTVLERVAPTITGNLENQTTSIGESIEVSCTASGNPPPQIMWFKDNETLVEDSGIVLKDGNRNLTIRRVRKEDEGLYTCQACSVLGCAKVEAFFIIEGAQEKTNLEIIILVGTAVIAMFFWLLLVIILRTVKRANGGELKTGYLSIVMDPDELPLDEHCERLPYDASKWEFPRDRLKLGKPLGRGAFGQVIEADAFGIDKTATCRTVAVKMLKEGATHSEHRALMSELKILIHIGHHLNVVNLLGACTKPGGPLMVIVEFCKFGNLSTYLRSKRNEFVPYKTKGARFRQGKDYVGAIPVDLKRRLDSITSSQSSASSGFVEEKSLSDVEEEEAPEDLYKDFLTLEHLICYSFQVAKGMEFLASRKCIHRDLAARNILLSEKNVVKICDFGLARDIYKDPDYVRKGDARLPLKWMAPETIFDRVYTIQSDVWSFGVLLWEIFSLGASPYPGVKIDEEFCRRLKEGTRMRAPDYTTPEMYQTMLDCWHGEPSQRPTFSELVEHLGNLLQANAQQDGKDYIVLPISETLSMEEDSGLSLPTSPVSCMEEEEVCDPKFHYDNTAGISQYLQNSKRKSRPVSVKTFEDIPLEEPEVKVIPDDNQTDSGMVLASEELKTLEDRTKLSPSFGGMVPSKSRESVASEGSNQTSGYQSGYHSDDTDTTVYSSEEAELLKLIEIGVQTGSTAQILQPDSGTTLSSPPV

| Binder | % Inhibition of VEGF165-mediated 6-keto Prostaglandin F1α release at 133 nM Antibody Concentration, Average (KDR [1]) [%] | % Inhibition of VEGF165-mediated 6-keto Prostaglandin F1α release at 133 nM Antibody Concentration, N = 1 (KDR [1]) [%] | % Inhibition of VEGF165-mediated 6-keto Prostaglandin F1α release at 133 nM Antibody Concentration, N = 2 (KDR [1]) [%] | Activity at 133 nM (% Inhibition), 1-hour Pre-incubation at 4° C., Average (KDR [2]) [%] | Activity at 133 nM (% Inhibition), 1-hour Pre-incubation at 4° C., N = 1 (KDR [2]) [%] | Activity at 133 nM (% Inhibition), 1-hour Pre-incubation at 4° C., N = 2 (KDR [2]) [%] | % of Max VEGF KDR pTyr Activity (at 133 nM antibody concentration), Average (KDR [3]) [%] | % of Max VEGF KDR pTyr Activity (at 133 nM antibody concentration), N = 1 (KDR [3]) [%] | % of Max VEGF KDR pTyr Activity (at 133 nM antibody concentration), N = 2 (KDR [3]) [%] | Activity at 133 nM (% Inhibition), 24-hour Pre-incubation at 37° C., Average (KDR [4]) [%] | Activity at 133 nM (% Inhibition), 24-hour Pre-incubation at 37° C., N = 1 (KDR [4]) [%] | Activity at 133 nM (% Inhibition), 24-hour Pre-incubation at 37° C., N = 2 (KDR [4]) [%] | Activity at 133 nM Antibody Concentration (% Survival Inhibition), Average (KDR [5]) [%] | Activity at 133 nM Antibody Concentration (% Survival Inhibition), N = 1 (KDR [5]) [%] | Activity at 133 nM Antibody Concentration (% Survival Inhibition), N = 2 (KDR [5]) [%] |
| --- | --- | --- | --- | --- | --- | --- | --- | --- | --- | --- | --- | --- | --- | --- | --- |
| 32C11 (antibody, V domains shown) VH: EVQLLESGGTLVQPGGSLRLSCAASGFTFSNYAMSWVRQAPGKGLEWVSAISGRAGSTYYADSVKGRFTISRDNSKNTLFLQMNSLRAEDTAVYYCAKASGDDWGQGTLVTVSS VL: not shown | 9 | 6 | 11 | 27 | 32 | 21 | 10 | 9 | 11 | 73 | 73 | 73 | -91 | -95 | -87 |
| 24B3 (antibody, V domains shown) VH: EVQLVESGGGLVKPGGSLRLSCAASGFTFSTYSMNWVRQAPGKGLEWVSFISGRSSYIYYADSVKGRFTISRDNAKNSLYLQMNSLRAEDTAVYYCSKDDWFEELWGQGTLVTVSS VL: DIQMTQSPSSLSASVGDRVTITCRASQGIRSDLGWYQQKPGKAPKRLIYATSSLQSGVPSRFSGSGSGTEFTLTISSLQPEDFATYYCLQHNRYPWTFGQGTKVEIK | 68 | 66 | 70 | 80 | 80 | 80 | 14 | 12 | 15 | 72 | 76 | 69 | 65 | 65 | 64 |
